Measured values as given in patent US20230272047A1 (University of Washington, published 2023).
Numbering of substitutions follows the chain as printed. Names may count otherwise. Blank lines part the entries; values can stand above or below the binder they belong to.

Columns and labels:
[1] = target: T1, human transferrin receptor 1 ectodomain, biotinylated (human, UniProt P02786 89-760, biotinylated in vitro (Avidity kit) at the C-terminal Avi tag); assay: single concentration biolayer interferometry (1 µM design)
T1 construct: extracellular domain; Expressed as IgK-sFLAG-His-Sen-TEV-TfR1-his-Avi in the Daedalus system; The N-terminal expression tag was cleaved with TEV; In yeast display it was detected with streptavidin-phycoerythrin; also called hTfR; hTfR ectodomain; not shown: C-terminal his-Avi tag (printed 'his-Avin')

[2] = target: T1, human transferrin receptor 1 …; assay: biolayer interferometry, biotinylated hTfR on streptavidin biosensors
[3] = target: T1, human transferrin receptor 1 …; assay: single concentration biolayer interferometry, biotinylated hTfR on streptavidin biosensors

T1 sequence (P02786 89-760): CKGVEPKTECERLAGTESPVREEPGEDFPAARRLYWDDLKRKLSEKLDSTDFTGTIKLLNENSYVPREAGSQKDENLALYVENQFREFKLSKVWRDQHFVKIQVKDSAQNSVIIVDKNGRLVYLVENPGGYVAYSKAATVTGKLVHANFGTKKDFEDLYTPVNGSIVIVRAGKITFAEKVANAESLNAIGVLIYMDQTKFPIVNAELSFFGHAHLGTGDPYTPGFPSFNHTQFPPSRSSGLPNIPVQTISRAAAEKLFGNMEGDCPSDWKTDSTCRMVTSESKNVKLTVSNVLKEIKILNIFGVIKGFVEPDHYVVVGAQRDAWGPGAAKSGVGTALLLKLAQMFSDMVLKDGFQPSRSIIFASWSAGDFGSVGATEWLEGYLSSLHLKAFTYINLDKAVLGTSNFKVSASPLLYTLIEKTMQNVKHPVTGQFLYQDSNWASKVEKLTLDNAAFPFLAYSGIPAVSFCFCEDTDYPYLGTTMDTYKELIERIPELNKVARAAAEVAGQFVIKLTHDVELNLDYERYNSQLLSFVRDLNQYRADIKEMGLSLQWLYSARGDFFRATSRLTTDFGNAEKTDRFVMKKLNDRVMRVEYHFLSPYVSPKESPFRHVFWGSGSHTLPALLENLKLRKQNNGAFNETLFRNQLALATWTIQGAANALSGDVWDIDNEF

binding result [1]: binds
B1: 3DS10 (designed binder)
chain: TEEERLREEVKRVAQRAEEEGANEEEIAQILLLALNAAVVVVVESEEQAERVAQYIREVVPEALVIVYNNFVVIFVESDEAARRAWEAAERAQ
notes: Expressed in E. coli; the N-terminal His tag was cleaved with TEV

binding result [1]: binds
B2: 3DS2 (designed binder)
chain: TEDEEYEERVREALEEAKKKNEHNEELVAQIALLILGAVVVIVAESEEAAKRAAQYVRERVPNAKVYVFDNFVFVHAESREDQEAAWRAAQEAM
notes: as for B1

binding result [1]: binds
B3: 3DS11 (designed binder)
chain: DLEERVRKAVNEAQEEAKRNNLDENEAALEAALRLGVVVLVVVDSEEQAERVAKYVHKLVPSVRVVIYNNLVFFHVDTDEEARRVYEAAERAQ
notes: as for B1

binding result [1]: binds
B4: 3DS6 (designed binder)
chain: DKEDELRELAKELVREYEKRGVSEEEIALLVALAANFAVVIVFDNEEQAERAAKYIKKKLPSAVIVIFNNFVFVYVDSREDERIAWELAQEAQ
notes: as for B1

binding result [1]: binds
B5: 3DS23 (designed binder)
chain: DEEEEEKEEIRRQLDEARERGVSEEEAAIEVAQNFNFIVVVVVDSEEEAERVAEYVRREVPRVHIVIVQNVVFFRVDSDEDARRVWELAQKAQ
notes: as for B1

binding result [2]: binds
B6: 2DS25 (purified from E. coli) (designed binder)
chain: DEEEIQKAIEELLRKGVSEEEAAIIIAQRFNVAVVVVVQDERQAKHISEYIRRYIPEADVILFANIVVIKVETEELRKRVWEAAQKAY
notes: Expressed in E. coli with an N-terminal histidine tag and a TEV site; Eluted as a monomer on SEC

binding result [3]: no binding
B7: 2DS25_KO (W81A/Q85A) (designed binder)
chain: B6 chain with W81A, Q85A
